# Measured values taken from publication PMC7110113, “Termination of non‐coding transcription in yeast relies on both an RNA Pol II CTD interaction domain and a CTD‐mimicking region in Sen1” (The EMBO Journal, 2020).
# B1: Nrd1 CID [S. cerevisiae] / Sen1 NIM peptide, FAM-labelled [modified: 5,6-carboxyfluorescein (FAM) on the N-terminus; 5,6-carboxyfluorescein (FAM) on the N-terminus] [S. cerevisiae] (parent complex)
# chain 1: MQQDDDFQNFVATLESFKDLKSGISGSRIKKLTTYALDHIDIESKIISLIIDYSRLCPDSHKLGSLYIIDSIGRAYLDETRSNSNSSSNKPGTCAHAINTLGEVIQELLSDAIAKSNQDHKEKIRMLLDIWDRSGLFQKSYLNAIRSKCFAMD
# chain 2: DDDEDDYTPSIS
# Variants of: B1
# Assay: fluorescence anisotropy (FA); parent: 1.2e+03 nM
row,Kd [µM],Variant
1,7.38,chain 1 I130A
